First the molecules themselves.
T1: CD19 (UniProt P15391 20-556, limits assumed)
T1 construct: whole, on cells; also called CD19 on JeKo-1
T1 sequence (looked up): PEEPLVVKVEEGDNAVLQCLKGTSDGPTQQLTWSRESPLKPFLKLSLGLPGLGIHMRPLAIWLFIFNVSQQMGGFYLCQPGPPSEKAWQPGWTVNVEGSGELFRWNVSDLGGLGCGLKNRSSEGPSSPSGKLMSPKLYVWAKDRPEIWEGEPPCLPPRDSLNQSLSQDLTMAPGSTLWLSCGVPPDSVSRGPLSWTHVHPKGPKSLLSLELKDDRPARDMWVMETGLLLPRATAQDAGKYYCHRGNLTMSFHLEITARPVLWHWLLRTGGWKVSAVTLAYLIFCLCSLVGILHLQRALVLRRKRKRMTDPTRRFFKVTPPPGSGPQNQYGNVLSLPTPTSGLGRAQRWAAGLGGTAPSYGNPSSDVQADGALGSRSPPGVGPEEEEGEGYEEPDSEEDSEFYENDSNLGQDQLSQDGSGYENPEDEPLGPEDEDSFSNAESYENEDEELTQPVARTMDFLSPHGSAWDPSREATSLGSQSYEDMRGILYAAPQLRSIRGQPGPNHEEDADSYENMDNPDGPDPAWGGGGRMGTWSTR

B1: CD19 BRIDGE variant B4 (Fab)
heavy: EVQLVESGGGLVKPGGSLKLSCAASGYTFTSYVMHWVRQAPGKGLEWIGYINPYNDGTKYNEKFQGRVTISSDKSISTAYMELSSLRSEDTAMYYCARGTYYYGTRVFDYWGQGTLVTVSSASTKGPSVFPLAPSSKSTSGGTAALGCLVKDYFPEPVTVSWNSGALTSGVHTFPAVLQSSGLYSLSSVVTVPSSSLGTQTYICNVNHKPSNTKVDKKVEPKSCHHHHHH
light: GHNYTTRNILPGLNITSTFHKTSGSGKEPKSSDKTHTDIVMTQSPATLSLSPGERATLSCRSSKSLQNVNGNTYLYWFQQKPGQSPQLLIYRMSNLNSGVPDRFSGSGSGTEFTLTISSLEPEDFAVYYCMQHLEYPITFGAGTKLEIKRTVAAPSVFIFPPSDEQLKSGTASVVCLLNNFYPREAKVQWKVDNALQSGNSQESVTEQDSKDSTYSLSSTLTLSKADYEKHKVYACEVTHQGLSSPVTKSFNRGEC
B2: CD19 BRIDGE variant B5 (Fab)
heavy: B1 heavy
light: GHNYTTRNILPGLNITSTFHKTSGSGKGSEPKSSDKTHTDIVMTQSPATLSLSPGERATLSCRSSKSLQNVNGNTYLYWFQQKPGQSPQLLIYRMSNLNSGVPDRFSGSGSGTEFTLTISSLEPEDFAVYYCMQHLEYPITFGAGTKLEIKRTVAAPSVFIFPPSDEQLKSGTASVVCLLNNFYPREAKVQWKVDNALQSGNSQESVTEQDSKDSTYSLSSTLTLSKADYEKHKVYACEVTHQGLSSPVTKSFNRGEC
B3: CD19 BRIDGE variant B10 (Fab)
heavy: B1 heavy
light: GHNYTTRNILPGLNITSTFHKTSGSGKEPKSSDKTHTGSDIVMTQSPATLSLSPGERATLSCRSSKSLQNVNGNTYLYWFQQKPGQSPQLLIYRMSNLNSGVPDRFSGSGSGTEFTLTISSLEPEDFAVYYCMQHLEYPITFGAGTKLEIKRTVAAPSVFIFPPSDEQLKSGTASVVCLLNNFYPREAKVQWKVDNALQSGNSQESVTEQDSKDSTYSLSSTLTLSKADYEKHKVYACEVTHQGLSSPVTKSFNRGEC
B4: CD19 BRIDGE variant B1 (Fab, V domains shown)
VH: EVQLVESGGGLVKPGGSLKLSCAASGYTFTSYVMHWVRQAPGKGLEWIGYINPYNDGTKYNEKFQGRVTISSDKSISTAYMELSSLRSEDTAMYYCARGTYYYGTRVFDYWGQGTLVTVSS
VL: DIVMTQSPATLSLSPGERATLSCRSSKSLQNVNGNTYLYWFQQKPGQSPQLLIYRMSNLNSGVPDRFSGSGSGTEFTLTISSLEPEDFAVYYCMQHLEYPITFGAGTKLEIKR
B5: CD19 BRIDGE variant B3 (Fab, V domains shown)
VH: B4 VH
VL: B4 VL
B6: CD19 BRIDGE variant B2 (Fab, V domains shown)
VH: B4 VH
VL: B4 VL
B7: CD19 BRIDGE variant B7 (Fab, V domains shown)
VH: B4 VH
VL: B4 VL
B8: CD33 PURIFIED BRIDGE (Fab, V domains shown)
VH: QVQLVQSGAEVKKPGSSVKVSCKASGYTFTDYNMHWVRQAPGQGLEWIGYIYPYNGGTGYNQKFKSKATITADESTNTAYMELSSLRSEDTAVYYCARGRPAMDYWGQGTLVTVSS
VL: DIQMTQSPSSLSASVGDRVTITCRASESVDNYGISFMNWFQQKPGKAPKLLIYAASNQGSGVPSRFSGSGSGTDFTLTISSLQPDDFATYYCQQSKEVPWTFGQGTKVEIKR
notes: also called old variant; original E200 CD33 Fab bridging molecule derived from lintuzumab

One test deals with T1, CD19. In words: flow cytometry, JeKo-1 cells, bridge at saturating conc., BIL03s-AF647 detection. As to the method: (§1) JeKo-1 cells were incubated with different CD19 BRiDGE variants at saturating concentrations. […] The MFI intensity correlates with the number of secondary bound antibodies bound to the CD19 BRiDGE variants that are only detected if they are bound to the JeKo-1 cells. MFI: median fluorescence intensity. BLitz: Bio-Layer interferometry (BLI) technology using HIS-tag identification tips. […] The higher the MFIR, the stronger the binding.
On to B1, for which the “MFI Bil03 AF647” value came out at 9.02.

Consider B2, for which the “MFI Bil03 AF647” value turned out to be 5.5.

Regarding B3, the “MFI Bil03 AF647” value turned out to be 7.71.

Consider B4, for which the “MFI Bil03 AF647” value was determined as 3.19.

B5: the “MFI Bil03 AF647” value was 5.43.

On to B6, for which the “MFI Bil03 AF647” value is 4.17.

On to B7, for which the “MFI Bil03 AF647” value was found to be 7.57.

For another test, the target named is T2, nfP2X7 CAR 1.
T2 construct: CAR-positive cells gated by the co-expressed EGFR marker; also called nfP2X7 targeted CAR; nfP2X7 CAR on EGFR+ T cells
As to the kind of experiment: flow cytometry, nfP2X7 CAR 1 T cells (EGFR+ gate), anti-His-FITC detection. As to the method: (§2) nfP2X₇ CAR T cells were incubated with different BRiDGE variants at saturating concentrations. […] The MFI intensity correlates with the number of secondary bound antibodies bound to the BRiDGEs that are only detected if they are bound to the CAR T cells. EGFR was used as a marker gene to detect the CAR expression. Thus, the EGFR+ T cell population was defined as the CAR expressing cells and the EGFR− T cell population was defined as the CAR negative subset. MFI: median fluorescence intensity. EGFR: epidermal growth factor receptor. BLItz: Bio-Layer interferometry (BLI) technology using HIS-tag identification tips. HIS-tag MFI Ratio: relative index that is calculated by the testing condition MFI divided by the control MFI, which corresponds to the MFI measured on EGFR+ T cells (defined as CAR positive cells) divided by the MFI measured on the EGFR− T cells (defined as CAR negative cells). […] The higher the MFIR, the stronger the binding.
Background: In flow cytometry, cells or beads pass a laser one at a time.
As to B1, the “MFI HisTag FITC in EGFR+ Population” value turned out to be 2.05.

Regarding B2, the “MFI HisTag FITC in EGFR+ Population” value turned out to be 2.08.

For the molecule B3, the “MFI HisTag FITC in EGFR+ Population” value turned out to be 2.26.

For the molecule B4, the “MFI HisTag FITC in EGFR+ Population” value worked out at 2.1.

Consider B5, for which the “MFI HisTag FITC in EGFR+ Population” value worked out at 2.05.

For the molecule B6, the “MFI HisTag FITC in EGFR+ Population” value turned out to be 2.07.

As for B7, the “MFI HisTag FITC in EGFR+ Population” value was 2.22.

For another test, the target named is T3, nfP2X7 CAR 1.
T3 construct: Expressed on T cells with truncated EGFR as marker gene; also called anti-nfP2X7 receptor CAR 1; nfP2X7 targeted CAR on EGFR+ T cells
As to the kind of experiment: flow cytometry, nfP2X7 CAR T cells (EGFR+), anti-His-FITC detection.
Turning to B8, the “MFI HisTag FITC in EGFR+ Population” value was 1.58.

Another test has as its target T1, CD19. In words: flow cytometry, JeKo-1 cells, BIL03s-AF647 detection, MFI over no-bridge control. As to the method: as §1
For the molecule B1, the “MFIR BIL03 AF647” value came out at 19.6.

B2: the “MFIR BIL03 AF647” value came out at 12.

On to B3, for which the “MFIR BIL03 AF647” value turned out to be 16.8.

With B4, the “MFIR BIL03 AF647” value amounted to 6.93.

Take B5: the “MFIR BIL03 AF647” value turned out to be 11.8.

With B6, the “MFIR BIL03 AF647” value was 9.07.

Regarding B7, the “MFIR BIL03 AF647” value amounted to 16.5.

For a further test, the target named is T4, CD33 (UniProt P20138 18-364, limits assumed).
T4 construct: whole, on cells; also called Siglec-3; CD33 on MOLM-13 cells
T4 sequence (P20138 18-364 limits assumed): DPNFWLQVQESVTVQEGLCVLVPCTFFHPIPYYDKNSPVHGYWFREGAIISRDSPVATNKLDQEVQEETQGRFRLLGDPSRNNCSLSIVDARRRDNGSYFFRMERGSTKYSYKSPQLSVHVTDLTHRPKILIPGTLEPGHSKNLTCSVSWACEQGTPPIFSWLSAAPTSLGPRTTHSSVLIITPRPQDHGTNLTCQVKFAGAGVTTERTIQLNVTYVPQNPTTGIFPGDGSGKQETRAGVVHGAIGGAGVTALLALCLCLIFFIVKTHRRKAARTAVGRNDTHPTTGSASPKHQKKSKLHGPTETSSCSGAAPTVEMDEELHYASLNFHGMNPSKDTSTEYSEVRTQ
In words: flow cytometry, MOLM-13 cells, anti-His-FITC detection. As to the method:
(§3) MOLM-13 cells were incubated with different CD33 BRIDGE variants at saturating concentrations. […] The MFI intensity correlates with the number of secondary antibodies bound to the CD33 BRIDGE variants that are only detected if they are bound to the MOLM-13 cells. MFI: median fluorescence intensity. BLItz: Bio-Layer interferometry (BLI) technology using HIS-tag identification tips. […] The higher the MFIR, the stronger the binding.
On to B8, for which the “MFI HisTag FITC” value was 7.12.

The target of a further test is T2, nfP2X7 CAR 1. As to the kind of experiment: flow cytometry, anti-His-FITC, MFI on EGFR+ (CAR+) T cells over background 0.44. How it is done: as §2
Consider B1, for which the “HisTag MFI Ratio (background 0.44)” value worked out at 4.7.

Turning to B2, the “HisTag MFI Ratio (background 0.44)” value worked out at 4.7.

Take B3: the “HisTag MFI Ratio (background 0.44)” value was 5.1.

As for B4, the “HisTag MFI Ratio (background 0.44)” value came out at 4.8.

Take B5: the “HisTag MFI Ratio (background 0.44)” value was determined as 4.7.

For B6, the “HisTag MFI Ratio (background 0.44)” value worked out at 4.7.

With B7, the “HisTag MFI Ratio (background 0.44)” value worked out at 5.

Another test has as its target T3, nfP2X7 CAR 1. In words: flow cytometry, CAR T cells, anti-His-FITC, EGFR+ MFI over background 0.4. Summed up: (§4)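 CAR T cells incubated with BRiDGE variants at saturating concentrations; bound BRiDGE detected with anti-His-FITC by flow cytometry. EGFR marks CAR expression. Value is median fluorescence intensity on EGFR+ (CAR+) cells divided by that on EGFR− (CAR−) cells.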
Turning to B8, the “HisTag MFI Ratio (background 0.4)” value was 4.

Another test has as its target T2, nfP2X7 CAR 1. As to the kind of experiment: flow cytometry, anti-His-FITC, MFI on EGFR+ (CAR+) over EGFR- (CAR-) T cells. How it is done: as §2
For B1, the “HisTag MFI Ratio of EGFR+/EGFR-” value came to 4.1.

Regarding B2, the “HisTag MFI Ratio of EGFR+/EGFR-” value is 4.2.

For B3, the “HisTag MFI Ratio of EGFR+/EGFR-” value came out at 4.3.

Turning to B4, the “HisTag MFI Ratio of EGFR+/EGFR-” value turned out to be 4.

For the molecule B5, the “HisTag MFI Ratio of EGFR+/EGFR-” value was found to be 4.1.

Regarding B6, the “HisTag MFI Ratio of EGFR+/EGFR-” value was determined as 4.1.

For B7, the “HisTag MFI Ratio of EGFR+/EGFR-” value was determined as 4.

The next test concerns the target T1, CD19. In words: flow cytometry, JeKo-1 cells, anti-His-FITC detection, MFI over no-bridge control. As to the method: as §1
B1: the “MFIR HisTag FITC” value was determined as 5.05.

With B2, the “MFIR HisTag FITC” value was found to be 4.42.

B3: the “MFIR HisTag FITC” value is 4.25.

Consider B4, for which the “MFIR HisTag FITC” value was found to be 4.17.

Regarding B5, the “MFIR HisTag FITC” value was determined as 4.71.

Take B6: the “MFIR HisTag FITC” value stood at 4.51.

Consider B7, for which the “MFIR HisTag FITC” value was 4.3.

In the next test the target is T1, CD19. As to the kind of experiment: flow cytometry, JeKo-1 cells, bridge at saturating conc., anti-His-FITC detection. As to the method:
as §1
In the case of B1, the “MFI HisTag FITC” value worked out at 3.89.

Take B2: the “MFI HisTag FITC” value is 3.4.

As for B3, the “MFI HisTag FITC” value was 3.27.

For B4, the “MFI HisTag FITC” value was 3.21.

With B5, the “MFI HisTag FITC” value was found to be 3.63.

B6: the “MFI HisTag FITC” value worked out at 3.47.

Consider B7, for which the “MFI HisTag FITC” value turned out to be 3.31.

The target of another test is T4, CD33. As to the kind of experiment: flow cytometry, MOLM-13 cells, anti-His-FITC detection, ratio to no bridge. As to the method: as §3
Turning to B8, the “MFIR HisTag FITC” value worked out at 10.6.

A further test has as its target T3, nfP2X7 CAR 1. As to the kind of experiment: flow cytometry, CAR T cells, anti-His-FITC, EGFR+ over EGFR- cells. In short, it runs like this: as §4
As to B8, the “HisTag MFI Ratio of EGFR+/EGFR-” value was found to be 4.

Source of the values: patent US20250281611A1 (BIOSCEPTRE AUST, published 2025).
